Reference: IntAct's records for PubMed 20062059

B1: Exocyst complex component SEC3 (Saccharomyces cerevisiae), P33332 (parent)
chain: MRSSKSPFKRKSHSRETSHDENTSFFHKRTISGSSAHHSRNVSQGAVPSSAPPVSGGNYSHKRNVSRASNSSQTSNFLAEQYERDRKAIINCCFSRPDHKTGEPPNNYITHVRIIEDSKFPSSRPPPDSKLENKKKRLLILSAKPNNAKLIQIHKARENSDGSFQIGRTWQLTELVRVEKDLEISEGFILTMSKKYYWETNSAKERTVFIKSLITLYIQTFEGHVPELVNWDLSLFYLDERSYQRAVITNRPGSVSPIKSPTSNFTTNTTQSVGSVPFSAPTERTRRSETESVNPVSTPASVEYHAGMKSLNKAPYSSNSTLNEVNKRYELEQQQQQEEAELRRLEEQKRLQLQKENEMKRLEEERRIKQEERKRQMELEHQRQLEEEERKRQMELEAKKQMELKRQRQFEEEQRLKKERELLEIQRKQREQETAERLKKEEQEALAKKEEEEKSKRNKVDNESYTQEINGKVDNLLEDLNAVLAEETETTPTMQNGTYVPERSTARAHDQLKKPLNIAKVESLGGSDLNDSISLSDEIAGLNTSNLSGEDQDEKNDLSFEKGDEVRYSNNFEGEAPHVYHEVSIIQEEAPAVSQKLILPEENNESEALIESKEEIKTMENIDDEVLLEILTDINWSIEDDADSMIERIDLRLAETEYLFNQNLLSLQKIGPNIRPYEDKVNDECHRIIPTLSLFLMEMSNFSNDIENVESQDNGLQVESANKKLLWNTLDELLKTVSLDEISLNQLLECPIREKNLPWMENQLNLLLKAFQAIGSDGNEVEYNLREISGLKQRLQFYEKVTKIFLNRIVEEMQKKFSNIRGQDISHDQMIRILTTLLIFSPLILFCKEISQKSYQAIVENWNVSIQPVYMELWTKKISQLQGIDTNDEKMNELSLSQLLNEWDTFRKERKTNDINPVFKNSFSLLTECLQTMRQECIVYQNFVEVFFHISSKHNFEEYIKHFNDPDAPPILLDTVKVMQSDREAAVIETQLVSRIFQPIVTRLSSYFVELVKAEPTVAPALTFYLENEIKSLESSNHEFLLSAVTRMYTQIKQVWSDNVEEQVLHFERISNATTNGEILPGILDLPVGLKNSEDLFQFAKRSMDIKDTDEGYESIELMNSSFRKLSIAATRSITHKEVNSSINPNLSDTAALNNDYMETISLLVNSNWLTEMLSMLNFNKDGIFDTSLQNVKKVFDVEKESYASFLLRDTMPKLTAFVYGVSNIIENTNNVNMTNPSRWAAYSRQNLENILLAYTSHEIETLVKRLHTHMVNDFGYHQENAINNVLCDKLWSCIQGQTVSLYLKLYTVIDKHYRGTNIRFTKNDIISAFEEYKNA

Variants of: B1
Settings: with rho1_yeast RHO1, P06780
rho1_yeast RHO1, P06780, sequence (P06780 whole entry): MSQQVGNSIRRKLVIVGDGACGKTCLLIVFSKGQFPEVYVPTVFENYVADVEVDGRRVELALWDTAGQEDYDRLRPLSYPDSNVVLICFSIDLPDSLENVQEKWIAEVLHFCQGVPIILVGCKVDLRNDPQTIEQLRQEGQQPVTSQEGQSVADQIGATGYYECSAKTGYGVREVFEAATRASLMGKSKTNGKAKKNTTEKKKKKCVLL

Variant	effect of a mutation on the interaction
E199A	disrupting interaction
L131A	disrupting interaction
K136A	disrupting interaction
